Key:
H2461 = test: rTRAIL response, viability assay, H2461; assay type: cell-based, Human; details: BAP1 Deletion - Frameshift, heterozygous
Experimental: (§1) Manual “single dose” combination screening was undertaken using 96 well formats. Cells were plated on day 1 in previously optimized seeding densities in 180 μl if media. On day 2 20 μl of a 10× concentration of […] was added. Cells were then allowed to grow for 72 hrs or 6 days and fixed at the end of the assay. Drug wells were compared to DMSO treated control wells.
(§2) Single agent high throughput 5 point viability screening was undertaken in 384 well formats using robotic liquid handling with fixing with 4% paraformaldehyde and staining for viability with Syto60 nucleic acid dye (Invitrogen) (see below). Single agent dose response curves were derived for each library of 85-95 drugs according to the experiment used, and log IC50 or area under the curve (AUC) metrics were derived for each library compound in each cell line according to a previously derived formula [18].
(§3) Adherent cell lines were seeded 24 hours before drugging. Cells were trypsinised and counted before seeding at the optimal density for the size of well (96 or 384) and duration of assay. 72 hr after drug treatment cells were fixed with 4% paraformaldehyde for 30 minutes. […] Quantification of fluorescent signal was achieved using excitation/emission wavelength of 630/695 […].

MDA MB-231 = test: rTRAIL response after BAP1 knockdown in MDA MB-231; assay type: cell-based; details: MDA MB-231 breast cancer cell line, BAP1 shRNA
Description: (§4) FIG. 8A is a graph showing the effect of rTRAIL on the viability of various cancer cell lines. Bladder (RT4) and Breast (HCC1187) cancer cell lines with nonsense mutations in BAP1 show sensitivity to rTRAIL while renal cell cancer cell lines (769P & RCC10RGB) with missense mutation and wild-type renal (BB65RCC) and bladder cancer (SW1710) cell lines are resistant to TRAIL.
The deubiquitinase BAP1 is frequently mutated in pleural mesothelioma (36%), uveal melanoma (47%) and intrahepatic cholangiocarcinomas (25%) as previously noted. To determine whether additional BAP1 mutant tumours occur that may also be amenable to this therapeutic approach, the inventors extended this analysis to a cohort of 5180 tumour samples in 20 cancer types using variant data from The Cancer Genome Atlas (TCGA). Truncating BAP1 mutations were also observed in a diverse range of cancer types, with frequencies of up to 6% (see FIGS. 1b, and c) Carbone, M. et al, Nature Reviews Cancer 13, 153-159 (March 2013). When the inventors extended their analysis to a panel of 1001 cancer cell lines that had previously been submitted for whole exome and copy number analysis, they identified 17 cell lines harbouring truncating mutations in BAP1. These included clear cell kidney cancer, bladder cancer and breast cancer cell lines. […]

NCI-H2052 = test: rTRAIL response, viability assay, NCI-H2052; assay type: cell-based, Human; details: BAP1 Wild-type
Experimental: as §1, §2, §3

MPP-89 = test: rTRAIL response, viability assay, MPP-89; assay type: cell-based, Human; details: BAP1 Wild-type
Experimental: as §1, §2, §3

NCI-H226 = test: Annexin V/DAPI cell death assay, H226 parental and BAP1-transduced lines; assay type: cell-based, Human
Experimental: FIG. 5A is an immunoblot for BAP1 protein in BAP1 null mesothelioma lines following transfection with empty vector and BAP1 expression vector. […] FIG. 5C is a graph showing the effect of rTRAIL on cell viability of an untransduced H226 cell line, a BAP1 (transduced) cell line, and a H226 cell line with the NLS deleted.
Untransduced BAP1-negative H226 cells, BAP1-expressing and catalytically dead BAP1-expressing H226 cells were treated with 100 ng/ml of FASL, TRAIL and TNF-alpha for 24 hours and cell death was quantified by Annexin V/DAPI assay. *p<0.05 indicating significant difference between untransduced H226 cells H226 BAP1 expressing cells. NS no significant difference between untransduced H226 cells and BAP1 C91A transduced cells. #p<0.05 indicating significant difference between untransduced H226 cells and BAP1 C91A transduced cells.
Adherent mesothelioma cell lines were plated in a 96 well plate at approximately 10000 cells per well. Cells were plated and given 1 day to adhere at which time drug was added. After 48 hrs media, including floating cells, was collected from each well. The remaining adherent cells were washed with PBS and mobilised with 0.05% trypsin in EDTA. All cells were collected into tubes containing the previously removed media and pelleted by centrifugation (300 g, 5 minutes). Cells were then re-suspended in 1× Annexin V binding buffer with 10 μl/1 ml concentration of Annexin V-647 antibody (Invitrogen) and incubated for 15 minutes at room temperature. DAPI ([…]) was then added to each sample before flow cytometry analysis as below. Annexin V−/DAPI− cells were judged to be viable, AnnexinV+/DAPI− cells were considered to be undergoing apoptosis (early apoptotic phase), and Annexin V+/DAPI+ cells were considered late apoptotic or necrotic, and recorded as dead.

H513 = test: rTRAIL response, viability assay, H513; assay type: cell-based, Human
Experimental: as §1, §2, §3

RCC10RGB = test: rTRAIL viability, renal cell cancer cell line RCC10RGB; assay type: cell-based; details: BAP1 missense mutation
Description: as §4

H2869 = test: rTRAIL response, viability assay, H2869; assay type: cell-based, Human; details: BAP1 Wild-type
Experimental: as §1, §2, §3

H2591 = test: rTRAIL response, viability assay, H2591; assay type: cell-based, Human; details: BAP1 Wild-type
Experimental: as §1, §2, §3

H2795 = test: rTRAIL response, viability assay, H2795; assay type: cell-based, Human; details: BAP1 Essential Splice, heterozygous
Experimental: as §1, §2, §3

[1] = test system: control normal mesothelial cell line MET-5A; test: 6-day viability assay, normal mesothelial control line; assay type: cell-based; details: rTRAIL 40 ng/ml
Experimental: FIG. 2A is a volcano plot showing drug-genome interactions in MPM. […] The Y-axis denotes adjusted p-Value, X-axis denotes effect size. Size of circle indicates number of mutant lines in cohort tested. […] Met 5a is a mesothelial normal control line. FIG. 2C is a scatter plot showing AUC following 6 day viability assay in response to 40 ng/ml rTRAIL (normalised to DMSO treated control) in cell lines discretized by BAP1 mutation status. […] Two-tailed t-test, p=0.015.
as §1
Adherent cell lines were seeded 24 hours before drugging. Cells were trypsinised and counted before seeding at the optimal density for the size of well (96 or 384) and duration of assay. 72 hr after drug treatment cells were fixed with 4% paraformaldehyde for 30 minutes. Following two washes of dH2O 100 μl Syto60 nucleic acid stain (Invitrogen) was added at a final concentration of 1 μM and plates […] for 1 hr at room temperature. Quantification of fluorescent signal was achieved using excitation/emission wavelength of 630/695 […].

H2722 = test: rTRAIL response, viability assay, H2722; assay type: cell-based, Human; details: BAP1 HomDel, homozygous
Experimental: as §1, §2, §3

H2810 = test: rTRAIL response, viability assay, H2810; assay type: cell-based, Human; details: BAP1 Wild-type
Experimental: as §1, §2, §3

SW1710 = test: rTRAIL viability, bladder cancer cell line SW1710; assay type: cell-based; details: BAP1 wild-type
Description: as §4

H2803 = test: rTRAIL response, viability assay, H2803; assay type: cell-based, Human; details: BAP1 Wild-type
Experimental: as §1, §2, §3

B1: rTRAIL: recombinant protein that activates the TRAIL pathway by binding to TRAIL-R1 (DR 4) and TRAIL-R2 (DR 5) (protein, UniProt P50591 1-281, looked up)
Tumor necrosis factor ligand …: MAMMEVQGGPSLGQTCVLIVIFTVLLQSLCVAVTYVYFTNELKQMQDKYSKSGIACFLKEDDSYWDPNDEESMNSPCWQVKWQLRQLVRKMILRTSEETISTVQEKQQNISPLVRERGPQRVAAHITGTRGRSNTLSSPNSKNEKALGRKINSWESSRSGHSFLSNLHLRNGELVIHEKGFYYIYSQTYFRFQEEIKENTKNDKQMVQYIYKYTSYPDPILLMKSARNSCWSKDAEYGLYSIYQGGIFELKENDRIFVSVTNEHLIDMDHEASFFGAFLVG
H2461
  rTRAIL response: Sensitive
MDA MB-231
  sensitivity to rTRAIL after knockdown of BAP1: increases sensitivity
NCI-H2052
  rTRAIL response: Resistant
MPP-89
  rTRAIL response: Resistant
NCI-H226; 100 ng/ml, 24 hours, untransduced, BAP1-expressing and catalytically dead BAP1-expressing H226
  sensitivity of H226 cells to cell death-inducing ligand, dependence on BAP1 catalytic domain: regulates the sensitivity
NCI-H226; BAP1 expressing H226 cell line, dose range of TRAIL
  cell death relative to BAP1 null line: significantly reduced
NCI-H226; BAP1 null NCI-H226, dose range of TRAIL
  cell death: increased cell death
H513; BAP1 Wild-type
  rTRAIL response: Resistant
H513; BAP1 wild-type and ASXL3 mutant (truncating mutation)
  TRAIL sensitivity: sensitive
RCC10RGB
  response to TRAIL (viability): resistant
H2869
  rTRAIL response: Resistant
H2591
  rTRAIL response: Resistant
H2795
  rTRAIL response: Sensitive*
[1]
  effect on cell viability: no significant effect on cell viability
H2722
  rTRAIL response: Resistant
H2810
  rTRAIL response: Resistant
SW1710
  response to TRAIL (viability): resistant
H2803
  rTRAIL response: Resistant

From patent publication US11789012B2, “Cell death biomarker” (UCL Business PLC, priority 2016, dated 2023)
